T1: Mit1 C-terminal domain (1156–1417) (S. pombe, UniProt Q9P793 1156-1417)
T1 sequence (looked up): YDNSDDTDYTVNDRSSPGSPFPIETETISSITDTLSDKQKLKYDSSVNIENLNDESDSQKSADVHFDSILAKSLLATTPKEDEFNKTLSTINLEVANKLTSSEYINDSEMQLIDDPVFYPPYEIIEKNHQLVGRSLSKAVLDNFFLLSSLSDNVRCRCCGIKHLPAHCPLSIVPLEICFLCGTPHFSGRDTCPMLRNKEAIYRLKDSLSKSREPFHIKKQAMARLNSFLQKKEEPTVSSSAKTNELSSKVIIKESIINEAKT


Legend:
[1] = molecular target: the molecule itself
[2] = molecular target: T1, Mit1 C-terminal domain (1156–1417); assay: pull-down

Binder	stoichiometry N [1]	binding result [2]
Clr3 (aa31–687) (enzyme, S. pombe, UniProt P56523 31-687, looked up) TNNKPMSGSENTLNNESHEMSQILKKSGLCYDPRMRFHATLSEVDDHPEDPRRVLRVFEAIKKAGYVSNVPSPSDVFLRIPAREATLEELLQVHSQEMYDRVTNTEKMSHEDLANLEKISDSLYYNNESAFCARLACGSAIETCTAVVTGQVKNAFAVVRPPGHHAEPHKPGGFCLFNNVSVTARSMLQRFPDKIKRVLIVDWDIHHGNGTQMAFYDDPNVLYVSLHRYENGRFYPGTNYGCAENCGEGPGLGRTVNIPWSCAGMGDGDYIYAFQRVVMPVAYEFDPDLVIVSCGFDAAAGDHIGQFLLTPAAYAHMTQMLMGLADGKVFISLEGGYNLDSISTSALAVAQSLLGIPPGRLHTTYACPQAVATINHVTKIQSQYWRCMRPKHFDANPKDAHVDRLHDVIRTYQAKKLFEDWKITNMPILRDSVSNVFNNQVLCSSNFFQKDNLLVIVHESPRVLGNGTSETNVLNLNDSLLVDPVSLYVEWAMQQDWGLIDINIPEVVTDGENAPVDILSEVKELCLYVWDNYVELSISKNIFFIGGGKAVHGLVNLASSRNVSDRVKCMVNFLGTEPLVGLKTASEEDLPTWYYRHSLVFVSSSNECWKKAKRAKRRYGRLMQSEHTETSDMMEQHYRAVTQYLLHLLQKARPTSQ	2	
Clr1 region between residues 357–500 (domain or fragment, S. pombe, UniProt O74808 357-500, looked up) PFLTPDNIASSILYSTASFSRSKPDRPRLNLSLELKLMQNELNKGQLKKQFKGDLRNLADWNNLSLVSSKFPSLPITNLRPDGSFLKHRRFNEEIAYNRQTLEKAIKQLDLSPDKVIQLREQNGVAVNGRVCYPTRNKHSEISA		binds
